Assay results from patent US20030027246A1, “Immunogenic peptides derived from prostate-specific membrane antigen (PSMA) and uses thereof” (priority 2000, published 2003).
Marks after values point to notes of the source that are not given here.

How the values were obtained:
A2Kb transgenic mouse = experiment: Immunogenicity of PSMA derived peptides in A2Kb transgenic mice (51Cr-release CTL assay); format: in vivo; details: 100.0 μg peptide + I-Ab-restricted peptide in IFA s.c.; splenocytes re-stimulated 6-7 days; 4 hr 51Cr-release vs peptide-pulsed P815-A2Kb targets
Procedure: The A2Kb transgenic mouse was used to assess the immunogenicity of the HLA-A0201 binding PSMA peptides. Mice of the B1O background (transgenic for the A2Kb chimeric gene) were purchased from the Scripps Clinic in California, USA. Mice were injected subcutaneously at the base of the tail with a dose of inoculum prepared by emulsifying 100.0 μg of the test peptide and 100.0 μg of an I-A^b-restricted peptide (described in Milich, D. R. et al. (1987) J. Immunol 139: 1223-1231) in incomplete Freund's adjuvant (IFA). Spleens of the experimental animals were collected on the 10th or 11th day post immunization. Spleenocytes of the experimental mice were prepared and cultured to enrich for CTLs before being assessed for effector activity. In vitro re-stimulation of the in vivo generated CTLs was performed by co-culturing in a 25 cm^2 tissue culture flask 3×10^7 responder cells (i.e. spleenocytes) with 1.3×10^7 irradiated autologous LPS (lipopolysaccharide)-blasts which had been pulsed with the respective peptide (100.0 μg per 10^8 cells). Cultures were kept in a 37° C., humidified CO2 incubator for 6-7 days before being tested for effector function in a standard 4 hr in vitro ^51Cr-release CTL assay as follows. […] Supernatant aliquots were then removed and counted for radioactivity.

[1] = molecular target: T1, HLA-A0201 molecules on T2 cells (Homo sapiens, UniProt P04439, D140Y/D185E/D98H/E176V/E277Q/G131W/G231S/I119V/I121R/I166T/I218V/L300P/L318F/N151K/N90K/P208A/P217A/Q86G/Q94H/R138H/R169H/T345S); experiment: HLA-A0201 binding/stabilization of PSMA derived peptides on T2 cells (BB7.2 flow cytometry); format: cell-based; details: for Fluorescence Index (FI): T2 cells; for HLA-A0201 binding as judged by Fluorescence Index (FI) values: membrane-bound HLA-A0201 on T2 cells, result in words
T1 construct: endogenous in cells; host or cells: T2 cell line (Dr. Peter Creswell, Yale University)
Procedure: The ability of the PSMA derived peptides described in Table 1 to stabilize membrane-bound HLA-A0201 molecule was assessed utilizing the T2 cell line (Dr. Peter Creswell, Yale University). The cell line has been well documented to have a defective TAP (i.e. Transporter for Antigen Processing) transporter function. […] The stability of the surface HLA-A0201 molecules can be restored upon interaction with suitable exogenous peptides. The stabilization of the conformation of the class 1 MHC molecules is accompanied by the formation of an immunodominant epitope recognized by a mouse monoclonal antibody (designated BB7.2; American Type Culture Collection (ATCC)). Thus, the detection of this specific epitope is indicative of stable membrane-bound HLA-A0201 molecules loaded with peptide.
T2 cells were propagated in Iscove's complete medium (Iscove's medium supplemented with 10% heat-inactivated bovine serum, 120.0 units per ml of penicillin G sodium, 120 μg per ml of streptomycin sulphate, and 0.35 mg per ml of L-glutamine). The ability of PSMA peptides (Table 1) to bind and stabilize surface HLA-A0201 molecules on T2 cells was determined utilizing a protocol documented in the art (Deng, Y. (1997) J Immunol 158:1507-1515). In essence, 0.5×10^6 T2 cells were incubated with 125.0 μM of the test peptide in 200.0 μl of serum-free culture medium (Iscove's medium supplemented with 120.0 units per ml of penicillin G sodium, 120.0 μg per ml of streptomycin sulphate and 0.35 mg per ml of L-glutamine) overnight at 37° C. Subsequently, cells were washed twice with Iscove's medium (without bovine serum) to remove free PSMA peptide. To the cell pellet was added 1.0 ml of complete Iscove's medium (supplemented with fetal bovine serum (10% final)) containing 5.0 μg per ml of brefeldin A (Sigma), 12.5 μg per ml of anisomycin (Sigma) and 5.0 μg per ml of cyclohexamide (Sigma). […] The cells were subsequently incubated 30 min on ice prior to two washes with ice-cold PBA (phosphate buffered saline (pH 7.2) containing 2.0% bovine serum). 100.0 μl of PBA containing 5.0 μg of monoclonal antibody BB7.2 was added to each test sample. The reaction was allowed to proceed on ice for 45 min. Cells were then washed three times with ice-cold PBA. The binding of BB7.2 was detected via the addition of 100.0 μl of PBA containing 1.0 μg of goat anti-mouse IgG-Fc fluorescein (FITC) conjugate (BETHYL Laboratories Inc.). After a 30 min incubation on ice, cells were twice washed with ice-cold PBA, and twice with ice-cold PBS (pH 7.2). Cells were immediately fixed by the addition of 50.0 μl of 1.0% paraformaldehyde. Samples were analyzed by Flow Cytometry. Results were expressed in units of Fluorescence Index (FI), calculated by the equation: [formula]
An FI value of 0.5 or greater was deemed to be significant.

[2] = 125.0 μM test peptide, overnight at 37° C., then 3.0 hr de-stabilization step, FI of 0.5 or greater deemed significant

Sequence	Fluorescence Index (FI) [1, 2]	HLA-A0201 binding as judged by Fluorescence Index (FI) values [1]	also measured
ALFDIESKV (CLP337) [CLP-337, PSMA derived peptide, amino acid position 711-719]			Immunogenicity: epitope-specific CTL responses (FIG. 1) (A2Kb transgenic mouse): immunogenic and capable of eliciting epitope-specific CTL responses
ELAHYDVLL (CLP330) [CLP-330, PSMA derived peptide, amino acid position 109-117]	0.7	demonstrated HLA-A0201 binding	
LDSVELAHY (CLP324) [CLP-324, reference compound]		does not exhibit binding	Fluorescence Index (FI) ([1]; 125.0 μM peptide, analysis did not include 3 hr de-stabilization step): 0**
LLHETDSAV [CLP-326]		demonstrated HLA-A0201 binding	
LMYSLVHNL [CLP-333]		demonstrated HLA-A0201 binding	
MMNDQLMFL [CLP-336]		demonstrated HLA-A0201 binding	Immunogenicity: epitope-specific CTL responses (FIG. 1) (A2Kb transgenic mouse): immunogenic and capable of eliciting epitope-specific CTL responses
NLNGAGDPL [CLP-331]	0		
NMKAFLDEL [CLP-329]	0		
PMFKYHLTV [CLP-334]	0		
VLAGGFFLL (CLP328) [CLP-328, PSMA derived peptide, amino acid position 27-35]	1.3	demonstrated HLA-A0201 binding	
VLRMMNDQL [CLP-335]	0.3		
WLCAGALVL (CLP327) [CLP-327, PSMA derived peptide, amino acid position 20-28]	0		
